Source: article PMC9368738, “The Mechanistic Understanding of RAD51 Defibrillation: A Critical Step in BRCA2-Mediated DNA Repair by Homologous Recombination” (International Journal of Molecular Sciences, 2022)
Several values for one entry are separate records, joined by “and”; a condition that tells them apart may be missing. Equal entries are not always repeated. Blank lines part the entries; values can stand above or below the molecule they belong to.

Assays:
[1] = target: T1, RAD51 fibrils (full-length recombinant human RAD51) (Homo sapiens, UniProt Q06609); assay: Static light scattering (SLS / CG-MALS) of BRC4-induced RAD51 defibrillation; format: biochemical; conditions: RAD51 6.25 µM = 0.25 mg/mL; very significant stoichiometric excesses of peptide
T1 construct: The full-length human RAD51 was expressed in E. coli Rosetta2(DE3) pLysS cells; made in house; host or cells: E. coli Rosetta2(DE3) pLysS, pET15b plasmid
T1 sequence (Q06609 1-339): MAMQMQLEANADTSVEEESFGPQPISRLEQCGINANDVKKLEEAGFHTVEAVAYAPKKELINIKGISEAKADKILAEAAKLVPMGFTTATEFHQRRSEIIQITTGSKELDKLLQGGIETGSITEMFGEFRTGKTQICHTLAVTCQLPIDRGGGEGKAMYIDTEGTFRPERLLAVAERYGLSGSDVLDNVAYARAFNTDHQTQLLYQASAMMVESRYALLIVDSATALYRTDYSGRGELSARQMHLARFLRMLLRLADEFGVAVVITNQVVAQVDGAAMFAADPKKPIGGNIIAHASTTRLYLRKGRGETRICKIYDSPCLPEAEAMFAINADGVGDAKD
Procedure: Static light scattering (SLS) and composition-gradient multi-angle static light scattering (CG-MALS). Measurements were carried out using a Calypso automated delivery system as a mixing unit, connected to a Dawn Heleos II multi-angle light scattering (MALS) and a T-rEX refractive index (RI) detector, both operating at 660 nm (all instruments produced by Wyatt Technology, Santa Barbara, CA, USA). […] Injection volume and flow rate were fixed at 0.8 mL and 1 mL/min, respectively. A delay time of 180 s was set between each injection.

[2] = target: T2, 6xHis-RAD51 (full-length recombinant human RAD51) (Homo sapiens, UniProt Q06609); assay: Microscale thermophoresis (MST); format: binding; conditions: highest concentration tested 400 μM; data not shown
T2 construct: The full-length human RAD51 was expressed in E. coli Rosetta2(DE3) pLysS cells; made in house; host or cells: E. coli Rosetta2(DE3) pLysS, pET15b plasmid
T2 sequence (Q06609 1-339): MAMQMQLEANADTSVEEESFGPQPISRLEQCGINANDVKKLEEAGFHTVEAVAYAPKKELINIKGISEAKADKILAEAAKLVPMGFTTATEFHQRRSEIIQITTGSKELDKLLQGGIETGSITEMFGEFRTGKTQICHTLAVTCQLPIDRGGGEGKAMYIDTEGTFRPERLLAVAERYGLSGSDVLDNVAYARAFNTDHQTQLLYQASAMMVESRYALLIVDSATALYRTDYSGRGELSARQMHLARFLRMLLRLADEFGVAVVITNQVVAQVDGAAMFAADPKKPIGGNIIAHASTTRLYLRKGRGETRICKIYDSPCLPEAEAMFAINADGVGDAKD

RAD51 fibrils = assay: Negative staining TEM of RAD51 fibrils; format: biochemical, human; conditions: large stoichiometric excess of peptide; RAD51 0.1 mg/mL (2.5 µM); incubation 2 h at 4 °C
Procedure: After incubation, each sample was adsorbed into pure carbon film 300-mesh copper grids (Electron Microscopy Sciences, Hatfield, PA, USA). After several washes in RAD51 storage buffer (20 mM Hepes (pH 8.00), 250 mM KCl, 0.1 mM EDTA, 2 mM DTT, 10% (v/v) glycerol), each sample was negatively stained using 1% uranyl acetate in MQ water. […] In total, more than 2500 fibrils from different negative staining experiments were measured for quantification.

[3] = tested on: RAD51 foci in BxPC-3 cell nuclei; assay: Immunofluorescence detection of RAD51 nuclear foci; format: cell-based; conditions: 1.5 h
Procedure: General cell culture. BxPC-3 cells (purchased from ATCC) were grown in RPMI 1640 containing 10% FBS, 100 U/mL penicillin–streptomycin, and 2 mM glutamine. All media and supplements were from Sigma-Aldrich. Cultures were routinely tested for mycoplasma contamination. Immunofluorescence. Immunofluorescence was used to study RAD51 nuclear translocation. To visualize RAD51 in cell nuclei, BxPC-3 cells were seeded on glass coverslips placed in a 6-well culture plate (2 × 10^5 cells/well) and allowed to adhere for 24 h. […] The medium was then removed to eliminate the chemotherapeutic agents, and cells were maintained in the presence of 5 µM BRC4myr for an additional 4 h. After this time, cells were fixed with PBS containing PFA 4% for 15 min, permeabilized in 70% ethanol, and then washed twice in PBS. […] After washing, coverslips were incubated in secondary anti-rabbit rhodamine-labelled antibody (Novus Biologicals, 1:1000 in 1% BSA/PBS) for 30 min at 37 °C, washed, air-dried, and mounted in a solution 2 µg/mL DAPI in DABCO. Images were acquired using a Nikon fluorescent microscope equipped with filters for TRITC and DAPI. The percentage of cells bearing nuclear foci was estimated by analyzing approximately 300 cells for each treatment sample.

[4] = target: full-length recombinant human RAD51 (N-terminal 6xHis-tagged) (human) (UniProt Q06609)
RAD51 (Homo sapiens) = RAD51 (Homo sapiens) (UniProt Q06609); assay: GST pull-down; conditions: cited from earlier work
RAD51 = conditions: pull-down assays; cited from earlier work
Text: This information comes from the only 3D structure of the RAD51-BRC4 interaction (PBD 1NOW).

[5] = target: T3, full-length recombinant human RAD51 (N-terminal 6xHis-tagged) (human), Q06609; assay: static light scattering (CG-MALS, Zimm plots); RAD51 alone at five concentrations between 0.1 and 0.35 mg/mL (2.5-8.75 µM); 20 mM HEPES pH 8, 0.1 mM EDTA, 250 mM KCl, 5% glycerol, 2 mM DTT; conditions: remark: other sources report otherwise
T3 chain: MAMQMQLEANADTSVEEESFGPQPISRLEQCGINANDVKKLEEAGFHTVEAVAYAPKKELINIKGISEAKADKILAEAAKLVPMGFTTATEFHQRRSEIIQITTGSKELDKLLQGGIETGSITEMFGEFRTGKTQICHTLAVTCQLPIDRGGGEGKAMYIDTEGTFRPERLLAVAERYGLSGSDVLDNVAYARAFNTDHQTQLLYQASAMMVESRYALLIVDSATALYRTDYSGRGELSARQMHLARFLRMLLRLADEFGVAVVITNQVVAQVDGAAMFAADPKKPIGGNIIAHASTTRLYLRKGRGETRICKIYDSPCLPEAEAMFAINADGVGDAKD

[6] = target: T4, full-length recombinant human RAD51 (N-terminal 6xHis-tagged) (human, UniProt Q06609 1-339); assay: MST; RED-tris-NTA-labelled 6xHis-RAD51 constant (25 nM in the methods, 100 nM in the results), 16 concentrations of BRC4 up to 32 µM; apparent Kd bounded by the lowest EC50 (titration regime); conditions: both partners purified
T4 construct: RAD51, human, full length; recombinase of 339 amino acids, about 40 kDa as monomer; Forms fibrils (homo-oligomers) without DNA; for MST labelled on the His tag with RED-tris-NTA 2nd Generation dye; also called His-RAD51; 6xHis-RAD51; source: E. coli Rosetta2(DE3) pLysS, pET15b, purified (His-Trap, anion exchange); not shown: His6, N-terminal, kept
T4 sequence (looked up): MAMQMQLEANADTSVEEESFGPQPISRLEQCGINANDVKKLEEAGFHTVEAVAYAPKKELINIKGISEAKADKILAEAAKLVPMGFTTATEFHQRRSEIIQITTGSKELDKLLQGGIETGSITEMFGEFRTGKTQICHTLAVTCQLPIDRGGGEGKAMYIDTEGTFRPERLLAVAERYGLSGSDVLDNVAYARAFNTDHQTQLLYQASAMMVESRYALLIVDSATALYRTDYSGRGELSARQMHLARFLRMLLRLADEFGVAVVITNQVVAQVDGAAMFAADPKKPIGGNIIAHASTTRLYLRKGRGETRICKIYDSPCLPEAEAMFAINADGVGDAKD

[7] = target: T4, full-length recombinant human RAD51 …; assay: static light scattering + other: dynamic light scattering + MST; midpoint of BRC4-induced RAD51 defibrillation against the BRC4/RAD51 molar ratio, RAD51 6.25 µM (SLS, DLS) or 100 nM (MST); conditions: both partners purified
[8] = target: T4, full-length recombinant human RAD51 …; assay: static light scattering (CG-MALS) + other: dynamic light scattering; RAD51 constant at 0.25 mg/mL (6.25 µM) with BRC4 or scBRC4 from 0 to 0.19 mg/mL (48 µM); 20 mM HEPES pH 8, 0.1 mM EDTA, 250 mM KCl, 5% glycerol, 2 mM DTT; DLS at 25 °C; step constants kd and kd1 from a defibrillation model fitted to the apparent weight average mass; conditions: both partners purified
[9] = target: T4, full-length recombinant human RAD51 …; assay: negative-staining TEM with streptavidin-gold labelling; 0.1 mg/mL (2.5 µM) 6xHis-RAD51 with biotinylated BRC4 (non-labelled BRC4 as control) on grids, streptavidin-gold; conditions: both partners purified

Molecule: scBRC4: BRC4 (35 residues) peptide, carrying a double mutation [F1524A, T1526A] (KEPTLLGAHAASGKKVKIAKESLDKVKNLFDEKEQ)
- apparent weight average mass versus no-interaction prediction [1]: followed the theoretical “no-interaction” prediction
- binding to RAD51 (MST) [2]: no binding
- RAD51 fibrils in TEM (RAD51 fibrils): the fibrils were still visible

Molecule: N.N.[Cl][Pt][Cl] [cisplatin]
- RAD51 nuclear foci, cisplatin alone ([3]; 50 µM cisplatin): large number of nuclear RAD51 foci

Molecule: COc1cccc2c1C(=O)c1c(O)c3c(c(O)c1C2=O)C[C@@](O)(C(=O)CO)C[C@@H]3O[C@H]1C[C@H](N)[C@H](O)[C@H](C)O1 [doxorubicin]
- RAD51 nuclear foci, doxorubicin alone ([3]; 200 nM doxorubicin): large number of nuclear RAD51 foci

Molecule: BRCA2 BRC4 (from UniProt P51587)
- Kd (RAD51 (Homo sapiens)): 1500 nM

Molecule: BRCA2: large protein (3418 amino acids) that interacts with RAD51 through eight BRC repeats
- BRCA2-RAD51 binding affinity (RAD51): nanomolar affinity

B3: biotinylated BRC4 peptide (peptide)
peptide: KEPTLLGFHTASGKKVKIAKESLDKVKNLFDEKEQ
modifications: biotin (position not given)
notes: BRCA2, fourth BRC repeat, residues 1517-1551, as BRC4; also called labelled peptide; source: bought: Thermo Fisher Scientific (synthetic peptide, BRC4 derivative)
- binding result [9]: binds

Other lines, results leading:

- homologous recombination (HR) assay in BxPC-3 cells, IC50 of HR inhibition [4]: 10 µM
- homologous recombination (HR) assay in BxPC-3 cells, percent HR inhibition at 5, 10 and 30 µM BRC4myr [4]: 85.1%
Molecule: myristoylated BRC4 peptide (BRC4myr)

- stoichiometry N (protomers per aggregate) [5]: 40 and 70
B1: full-length recombinant human RAD51 (N-terminal 6xHis-tagged), Q06609 1-339 (natural protein)
chain: MAMQMQLEANADTSVEEESFGPQPISRLEQCGINANDVKKLEEAGFHTVEAVAYAPKKELINIKGISEAKADKILAEAAKLVPMGFTTATEFHQRRSEIIQITTGSKELDKLLQGGIETGSITEMFGEFRTGKTQICHTLAVTCQLPIDRGGGEGKAMYIDTEGTFRPERLLAVAERYGLSGSDVLDNVAYARAFNTDHQTQLLYQASAMMVESRYALLIVDSATALYRTDYSGRGELSARQMHLARFLRMLLRLADEFGVAVVITNQVVAQVDGAAMFAADPKKPIGGNIIAHASTTRLYLRKGRGETRICKIYDSPCLPEAEAMFAINADGVGDAKD

- Kd [6]: ≤ 60 nM
- stoichiometry N [7]: 1 BRC4 per RAD51
- kd (each step of loss of a RAD51 unit from a fibril, from the defibrillation model) [8]: 33.7 ± 0.5 dimensionless
B2: BRC4 peptide (residues 1517-1551 of BRCA2) (peptide)
peptide: KEPTLLGFHTASGKKVKIAKESLDKVKNLFDEKEQ
notes: BRCA2, fourth BRC repeat, residues 1517-1551, MW 3957.6 Da; also called fourth BRC repeat of BRCA2; source: bought: Thermo Fisher Scientific (synthetic peptide)
